Results reported in patent US20180094062A1 (Hoffmann-La Roche, published 2018).
Values joined by “and” are separate entries in the source; they are usually repeats but may differ in a detail not shown here. Equal values may be shown once.

Key:
[1] = biological target: T1, human recombinant HER3 Extracellular Domain (HER3 ECD) (human, UniProt P21860 20-643); assay: SPR Biacore T100, antibody captured, 25 C
T1 construct: 68 kDa; also called human-Her3-ECD

TtSlyD-Wildtype = biological target: T2, TtSlyD-Wildtype; assay: SPR Biacore T100, antibody captured, 25 C
T2 construct: scaffold without insert; N-terminal methionine can be present or not; also called T.T.SlyD-wt; wild type Thermus thermophilus SlyD protein
T2 chain: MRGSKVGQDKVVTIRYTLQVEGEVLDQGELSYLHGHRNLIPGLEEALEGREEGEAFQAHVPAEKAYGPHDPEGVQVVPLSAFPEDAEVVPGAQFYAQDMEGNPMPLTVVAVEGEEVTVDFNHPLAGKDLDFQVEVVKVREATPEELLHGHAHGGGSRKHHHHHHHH

[2] = biological target: T3, HER4 ECD-HRG complex (Heregulin-complexed Her-4 ECD) (human, UniProt Q15303 26-651); assay: SPR Biacore T100, antibody captured, 25 C
T3 construct: Her-4 ECD incubated with a 5-fold molar excess of Heregulin
T3 sequence 1: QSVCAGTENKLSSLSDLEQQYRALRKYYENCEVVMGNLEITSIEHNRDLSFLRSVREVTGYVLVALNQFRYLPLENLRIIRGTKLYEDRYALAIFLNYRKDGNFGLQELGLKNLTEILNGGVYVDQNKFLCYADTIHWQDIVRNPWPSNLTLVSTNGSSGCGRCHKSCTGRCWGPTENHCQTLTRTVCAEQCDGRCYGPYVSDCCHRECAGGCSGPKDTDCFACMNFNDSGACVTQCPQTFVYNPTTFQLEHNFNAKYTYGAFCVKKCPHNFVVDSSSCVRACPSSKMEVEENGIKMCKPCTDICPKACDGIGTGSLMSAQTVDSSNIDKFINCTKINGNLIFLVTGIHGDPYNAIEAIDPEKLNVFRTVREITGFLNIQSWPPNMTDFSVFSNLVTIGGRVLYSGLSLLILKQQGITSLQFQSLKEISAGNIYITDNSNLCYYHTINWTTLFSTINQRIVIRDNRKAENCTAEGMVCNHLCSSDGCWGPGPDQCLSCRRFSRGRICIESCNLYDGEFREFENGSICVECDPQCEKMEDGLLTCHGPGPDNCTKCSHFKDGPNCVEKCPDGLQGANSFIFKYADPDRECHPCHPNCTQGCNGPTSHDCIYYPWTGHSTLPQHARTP
T3 sequence 2: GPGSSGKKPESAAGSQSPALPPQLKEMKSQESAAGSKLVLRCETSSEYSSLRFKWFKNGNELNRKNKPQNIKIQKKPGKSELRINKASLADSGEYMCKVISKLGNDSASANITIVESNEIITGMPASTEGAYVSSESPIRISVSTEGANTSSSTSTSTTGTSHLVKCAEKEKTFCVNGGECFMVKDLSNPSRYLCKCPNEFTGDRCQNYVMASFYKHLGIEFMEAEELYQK

[3] = biological target: T4, recombinant Thermus thermophilus SlyD FKBP-Her3 (TtSlyD-FKBP-Her3); assay: SPR Biacore T100, antibody captured, 25 C
T4 construct: expressed in E. coli, the N-terminal methionine can be present or not; also called thermo SlyD-Her3; T.T.SlyD-Her3
T4 chain: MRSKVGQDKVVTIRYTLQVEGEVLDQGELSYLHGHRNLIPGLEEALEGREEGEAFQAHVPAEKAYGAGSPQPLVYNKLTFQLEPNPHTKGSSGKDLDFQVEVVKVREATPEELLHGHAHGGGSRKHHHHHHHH

[4] = biological target: T5, human Heregulin fragment (HRG) (human); assay: SPR Biacore T100, antibody captured, 25 C
T5 construct: a 44 kDa homodimeric protein, expressed in FreeStyle 293-F cells; also called Heregulin beta (HRG)
T5 chain: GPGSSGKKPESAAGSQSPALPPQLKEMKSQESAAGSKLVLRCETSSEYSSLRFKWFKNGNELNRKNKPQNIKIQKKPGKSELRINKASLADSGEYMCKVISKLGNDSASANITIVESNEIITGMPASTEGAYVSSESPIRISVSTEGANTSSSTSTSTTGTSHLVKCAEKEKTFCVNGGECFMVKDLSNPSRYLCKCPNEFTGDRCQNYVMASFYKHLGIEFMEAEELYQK

[5] = biological target: T6, HER2 ECD peptide hairpin, overlapping immobilized 15-mer peptides (human, UniProt P04626 269-287, limits assumed); assay: CelluSpots array of overlapping 15-mer peptides
T6 construct: domain: peptide hairpin (β-hairpin); CelluSpots 15-mer library; cysteines replaced by serines; also called hairpin motive in the HER2 ECD
T6 peptide (looked up): PALVTYNTDTFESMPNPEG

[6] = biological target: T7, HER1 (EGFR) ECD peptide hairpin, overlapping immobilized 15-mer peptides (human, UniProt P00533 265-283, limits assumed); assay: CelluSpots array of overlapping 15-mer peptides
T7 construct: domain: peptide hairpin (β-hairpin); CelluSpots 15-mer library; cysteines replaced by serines; also called hairpin motive in EGFR
T7 peptide (looked up): PPLMLYNPTTYQMDVNPEG

[7] = biological target: T1, human recombinant HER3 Extracellular …; assay: SPR Biacore T100, antibody captured, 25 C, Langmuir fit
Method: (§1) A CM5 series sensor was mounted into the system and was normalized in HBS-ET buffer (10 mM HEPES pH 7.4, 150 mM NaCl, 3 mM EDTA, 0.005% w/v Tween 20) according to the manufacturer's instructions. The sample buffer was the system buffer supplemented with 1 mg/ml CMD (Carboxymethyldextran, Sigma #86524). The system operated at 25° C. 6500 RU RAM-Fcγ (relative units of Fcγ-fragment RamlgG, GE Healthcare) were immobilized according to the manufacturer's instructions using EDC/NHS chemistry on all four flow cells. The sensor was deactivated using 1M ethanolamine.
(§2) Analytes in solution were injected at different concentration steps of 0 nM, 1.1 nM, 3.7 nM, 11.1 nM, 33.1 nM and 90 nM for 3.5 min. The dissociation was monitored for 15 min. Where possible, kinetic signatures were evaluated according to a Langmuir fit.

[8] = biological target: T4, recombinant Thermus thermophilus SlyD …; assay: as above
Method: as §1, §2

[9] = biological target: T8, HER3 ECD-HRG complex (Heregulin-activated Her-3 ECD) (human, UniProt P21860 20-643); assay: SPR Biacore 3000, antibody captured, 25 C
T8 construct: receptor-ligand complex made by preincubating HER3 ECD with a five-fold molar excess of Heregulin; also called Heregulin/Her-3 ECD; Heregulin-complexed Her-3 ECD
Method: as §1, with “(Carboxymethyldextran).” for “(Carboxymethyldextran, Sigma #86524).”, “10000” for “6500”, “RAM-Fey” for “RAM-Fcγ”, “Fey-fragment Rabbit Anti-Mouse IgG/Jackson Laboratories)” for “Fcγ-fragment RamlgG, GE Healthcare)”, “all” for “all four”

B1: anti-HER3 antibody M-08-11 (antibody, V domains shown)
VH: QAYLQQSGAELMRPGASVRMSCQASGYTFTSYTIHWLKQTPRQGLEWIGAIYPRNGDFSYNQKFKDKASLTVDTSSSTAYMHLSSLTSEDSAVYFCARTINYGDWFAYWGQGTLVTVSA
VL: DIQMIQSPASLFVSEGETVIITCRASENIYSNLAWYHQKKGKSPQVLVYAAIKLADGVPLRFSGSGSGTQFSLKINSLQSEDFGSYYCQHFWGPPYTFGSGTNLEIK
notes: mouse monoclonal antibody from hybridoma, tested as hybridoma supernatant or as antibody; also called M-011
With B1 the “MR (Molar Ratio)” value [1] was 0.5, the binding result (TtSlyD-Wildtype) was “no binding (tested: 90 nM)” and the binding result [2] was “no binding (tested: 90 nM)”. For the same binder, the “MR (Molar Ratio)” value [3] was 1.4, the binding result [4] was “no binding (tested: 90 nM)” and the binding result [5] was “no binding (tested: 1 µg/mL)”. For the same binder, the binding result [6] was “no binding (tested: 1 µg/mL)”, the Kd [7] was 1.08 nM and 1 nM and the koff [7] was 5.32e-05 s⁻¹. For the same binder, the kon [7] was 49300 M⁻¹ s⁻¹, the Kd [8] was 1.6 nM and 2 nM and the koff [8] was 0.00014 s⁻¹. The kon [8] was 87000 M⁻¹ s⁻¹ and the “MR (Molar Ratio)” value [9] was 1.1.
